The text below walks through data of patent US20170101477A1 (Regeneron, published 2017).

Assay [1] has as its target T1, Mycx2-hLepR(ecto)-GPI anchored, on HEK293/hLEPR-GPI cells (human, UniProt P48357 22-839, GPI anchor at the C-terminus).
T1 construct: also called HEK293/Mycx2-hLepR(ecto)-GPI; not shown: N-terminal myc-myc tag
T1 sequence: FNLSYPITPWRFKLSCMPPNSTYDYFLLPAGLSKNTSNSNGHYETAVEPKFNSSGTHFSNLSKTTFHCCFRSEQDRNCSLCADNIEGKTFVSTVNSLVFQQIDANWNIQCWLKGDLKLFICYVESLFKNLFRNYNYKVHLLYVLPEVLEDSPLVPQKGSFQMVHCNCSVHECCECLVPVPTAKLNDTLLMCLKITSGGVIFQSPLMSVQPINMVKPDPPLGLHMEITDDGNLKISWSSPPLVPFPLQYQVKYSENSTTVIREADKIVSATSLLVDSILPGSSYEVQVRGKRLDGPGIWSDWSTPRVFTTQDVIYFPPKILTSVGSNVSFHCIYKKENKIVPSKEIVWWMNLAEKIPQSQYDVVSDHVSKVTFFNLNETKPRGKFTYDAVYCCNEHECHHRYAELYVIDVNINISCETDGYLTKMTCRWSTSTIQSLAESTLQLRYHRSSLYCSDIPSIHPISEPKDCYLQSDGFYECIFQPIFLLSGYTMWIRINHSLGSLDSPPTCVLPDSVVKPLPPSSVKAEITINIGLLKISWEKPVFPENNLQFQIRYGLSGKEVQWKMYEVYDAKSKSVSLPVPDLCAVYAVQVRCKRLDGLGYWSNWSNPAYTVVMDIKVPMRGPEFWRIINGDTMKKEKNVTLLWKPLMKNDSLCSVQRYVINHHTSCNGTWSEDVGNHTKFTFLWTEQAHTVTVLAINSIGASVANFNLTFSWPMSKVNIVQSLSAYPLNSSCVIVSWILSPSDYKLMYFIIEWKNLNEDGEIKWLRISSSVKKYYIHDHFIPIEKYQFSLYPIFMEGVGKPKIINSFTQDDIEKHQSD
Briefly: FACS, 70 nM Ab, HEK293/hLEPR-GPI.

Assay [2] addresses T2, full length human LEPR (amino acids 1-1165 of P48357, Isoform B), on cells (human, UniProt P48357 22-1165).
T2 construct: also called hLEPR-FL; HEK293/Stat3-luc/hLEPR-FL
T2 sequence: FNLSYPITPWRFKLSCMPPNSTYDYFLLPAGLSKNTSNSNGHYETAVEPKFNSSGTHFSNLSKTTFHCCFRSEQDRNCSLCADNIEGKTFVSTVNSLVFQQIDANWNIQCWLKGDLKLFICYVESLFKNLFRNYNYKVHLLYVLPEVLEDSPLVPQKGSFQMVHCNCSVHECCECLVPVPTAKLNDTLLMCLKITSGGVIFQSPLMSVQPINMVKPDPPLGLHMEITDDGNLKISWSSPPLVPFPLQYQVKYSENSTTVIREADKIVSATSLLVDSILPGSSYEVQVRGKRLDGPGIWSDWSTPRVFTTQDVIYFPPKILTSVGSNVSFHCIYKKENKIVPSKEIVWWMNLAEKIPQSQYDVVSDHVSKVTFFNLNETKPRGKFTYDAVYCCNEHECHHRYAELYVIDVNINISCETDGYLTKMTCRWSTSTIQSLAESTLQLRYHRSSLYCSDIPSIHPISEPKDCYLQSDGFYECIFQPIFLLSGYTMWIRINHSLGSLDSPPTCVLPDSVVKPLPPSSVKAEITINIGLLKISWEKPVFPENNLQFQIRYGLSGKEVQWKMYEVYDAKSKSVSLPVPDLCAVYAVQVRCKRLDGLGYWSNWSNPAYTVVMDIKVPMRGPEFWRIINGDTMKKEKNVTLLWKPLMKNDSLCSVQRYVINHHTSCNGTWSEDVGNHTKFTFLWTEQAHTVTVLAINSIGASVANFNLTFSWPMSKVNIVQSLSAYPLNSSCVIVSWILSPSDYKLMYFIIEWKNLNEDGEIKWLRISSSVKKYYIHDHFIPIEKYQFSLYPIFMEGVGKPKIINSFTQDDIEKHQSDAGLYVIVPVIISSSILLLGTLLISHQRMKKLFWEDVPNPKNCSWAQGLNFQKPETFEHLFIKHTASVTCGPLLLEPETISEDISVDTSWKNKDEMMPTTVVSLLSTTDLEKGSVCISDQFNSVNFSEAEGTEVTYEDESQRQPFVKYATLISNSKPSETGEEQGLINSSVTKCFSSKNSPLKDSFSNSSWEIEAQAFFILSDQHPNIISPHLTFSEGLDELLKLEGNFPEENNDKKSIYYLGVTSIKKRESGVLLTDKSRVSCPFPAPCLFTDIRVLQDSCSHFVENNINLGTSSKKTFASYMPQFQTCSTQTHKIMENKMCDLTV
Briefly: FACS, 70 nM Ab, HEK293/Stat3-luc/hLEPR-FL. (In general: In flow cytometry, cells or beads pass a laser one at a time.)

Assay [3] deals with T1, Mycx2-hLepR(ecto)-GPI anchored, on …. Briefly: FACS, 10 nM Ab, HEK293/hLEPR-GPI, 1 uM Leptin. As for the experimental part:
(§1) For the FACS analysis, HEK293 parental cells and HEK293/hLEPR-GPI cells were dissociated and plated onto 96-well v-bottom plates at 5×10⁵ cells/well in PBS containing 2% FBS (FACS buffer). […] Cells were subsequently fixed using BD CytoFix™ (Becton Dickinson, #554655), filtered, and analyzed on a HyperCyt Flow Cytometer (Beckman Coulter). Unstained and secondary antibody alone controls were also tested for all cell lines. The results were analyzed using ForeCyt (IntelliCyt) and FlowJo version 10 software to determine the geometric means of fluorescence for viable cells. The geometric mean of fluorescence for each sample was then normalized to the geometric mean of unstained cells to obtain relative binding per condition referred to as “binding ratios”, and these binding ratios were recorded for each antibody tested.

Assay [4] has the same target. Briefly: FACS, 10 nM Ab, HEK293/hLEPR-GPI, no added Leptin. As for the experimental part: as §1
Assay [5] concerns the target T3, human LEPR extracellular domain expressed with a C-terminal myc-myc-hexahistidine tag (hLEPR.mmh) (human, UniProt P48357 22-839).
T3 construct: also called human LEPR-MMH; monomeric human LEPR
Briefly: SPR, mAb over preformed hLEPR-MMH:human Leptin complex. As for the experimental part: The entire study was performed in 10 mM HEPES pH 7.4, 150 mM NaCl, 3 mM EDTA, and 0.05% v/v Surfactant Tween-20 (HBS-ET running buffer) at 25° C.
A general note: In SPR one partner is held on a chip, and binding of the other changes the refractive index at the surface.

Assay [6] addresses T4, human LEPR CRH1 (D1,D2,D3)-MMH (human, UniProt P48357 22-427).
T4 construct: domain: CRH1-Ig (D1,D2,D3); Limits on human LEPR cannot be told from the printed numbers; also called CRH1-Ig (D1, D2, D3); not shown: C-terminal myc-myc hexahistidine tag (amino acids 279-306 of the construct)
T4 sequence (looked up): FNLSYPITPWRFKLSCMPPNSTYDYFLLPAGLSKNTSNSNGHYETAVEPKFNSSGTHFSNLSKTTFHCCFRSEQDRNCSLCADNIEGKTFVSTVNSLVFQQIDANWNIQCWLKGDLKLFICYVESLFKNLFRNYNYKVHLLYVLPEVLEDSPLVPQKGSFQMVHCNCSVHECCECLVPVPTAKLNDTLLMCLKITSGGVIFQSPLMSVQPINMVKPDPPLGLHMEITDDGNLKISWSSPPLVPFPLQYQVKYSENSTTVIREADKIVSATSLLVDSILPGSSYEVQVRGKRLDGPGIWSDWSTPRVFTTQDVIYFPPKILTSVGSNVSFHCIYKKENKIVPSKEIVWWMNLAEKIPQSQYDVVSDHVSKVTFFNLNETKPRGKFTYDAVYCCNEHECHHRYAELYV
Briefly: Luminex, myc-captured LEPR protein. As for the experimental part: Aliquots of microspheres with immobilized anti-myc monoclonal antibodies, prepared as described above, were added individually to 1 mL of the each of these protein supernatants. The microspheres were gently mixed, incubated for two hours at 25° C., washed twice with 1 mL of DBPS, centrifuged to remove the supernatant and finally resuspended in 1 mL of DPBS buffer.
From this mixed pool, 75 μL of microspheres were plated per well on a 96 well filter plate (Millipore, Cat. No: MSBVN1250) and mixed with 25 μL of individual anti-human LEPR monoclonal antibodies (0.5 or 5 μg/mL), incubated for two hours at 25° C. and then washed twice with 200 μL of DPBS with 0.05% Tween 20 (washing buffer). […] The Median Fluorescence intensity (MFI) of the microspheres was measured in a Luminex Analyzer.

B1: H4H16650P2 (antibody, human IgG4, V domains shown)
VH: QVQLVESGGGVVQPGKSLRLSCVASGFTFSSDAMYWVRQAPGKGLEWVAVIYYDGNYQYYEDSVKGRFTISRDNSQNTLDLQMNSLRVDDTAVYFCARLNWDYWYLDLWGRGTLVTVSS
VL: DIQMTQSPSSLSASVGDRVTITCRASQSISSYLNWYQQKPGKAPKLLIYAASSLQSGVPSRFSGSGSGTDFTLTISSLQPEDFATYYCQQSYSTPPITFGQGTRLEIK
notes: H4H prefix means human IgG4 Fc; Classed as agonist
With B1, the “Binding Ratio” value is 707 fold in assay [1], 42 fold in assay [2], 3120 fold in assay [3] and 2420 fold in assay [4]. Moreover, in assay [5], the “200 nM mAb Bound (RU)” value is 81 RU.

B2: H4H18446P2 (antibody, human IgG4, V domains shown)
VH: EVQLVESGGGLVQPGGSLRLSCAASGFTFSNYGMTWVRQAPGKGLEWVSAITGGGGSTYYSNSVKGRFTISRDNSKNTVYLRMNSVRAEDTAVYYCAKYKWNFVDDWGQGTTVTVSS
VL: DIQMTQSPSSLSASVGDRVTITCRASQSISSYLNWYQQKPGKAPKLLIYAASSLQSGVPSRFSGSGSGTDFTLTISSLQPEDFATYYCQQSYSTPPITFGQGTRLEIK
notes: human IgG4 Fc
Take B2: the “Luminex MFI” value in assay [6] came to 205 MFI.

B3: H4H18445P2 (antibody, human IgG4, V domains shown)
VH: QVQLQESGPGLVKPSQTLSLTCTVSGGSISSGGDYWSWIRQLPGKGLEWIGYIYYSGSAYYNPSLKSRGTISIDTSKNQFSLKLTSVTAADTAVYFCVKLRFLEWFLGGWFGPWGQGTLVTVSS
VL: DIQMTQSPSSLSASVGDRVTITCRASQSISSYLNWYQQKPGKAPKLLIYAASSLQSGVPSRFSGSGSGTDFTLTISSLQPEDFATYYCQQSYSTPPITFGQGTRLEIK
notes: human IgG4 Fc
For B3, the results for the “Binding Ratio” value in assay [3] and in assay [4] were 2490 fold and 2020 fold, respectively.

B4: H4H16679P2 (antibody, human IgG4, V domains shown)
VH: QVQLVESGGGVVQPGRSLRLSCTASGFTFSSYAMYWVRQAPGKGLEWVSVIYYDGSYKYYADSVKGRFTISRDNSKNTLYLQMDSLRAEDTAVYYCASYNWNYWYFDFWGRGTLVTVSS
VL: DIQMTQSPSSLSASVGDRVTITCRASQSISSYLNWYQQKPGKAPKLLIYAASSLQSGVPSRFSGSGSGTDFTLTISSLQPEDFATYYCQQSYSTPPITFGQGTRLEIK
notes: human IgG4 Fc; Classed as agonist
Regarding B4, the “Binding Ratio” value turned out to be 1080 fold in assay [1], 51 fold in assay [2], 2220 fold in assay [3] and 2060 fold in assay [4]. Besides, in assay [5], the “200 nM mAb Bound (RU)” value was 90 RU.

B5: H4H17321P2 (antibody, human IgG4, V domains shown)
VH: QVQLVESGGGVVQPGRSLRLSCEASGFSSSDNAMYWVRQAPGKGLEWVSVIYHDGSYKYYEDSVKGRFTIARDNSKNTLYLQMNSLRAEDTAVYYCARYNWNHWYFDVWGRGTLVTVSS
VL: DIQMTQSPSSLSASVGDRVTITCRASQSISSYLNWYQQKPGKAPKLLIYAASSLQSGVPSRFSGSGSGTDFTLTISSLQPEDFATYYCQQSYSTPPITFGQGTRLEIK
notes: as for B4
In the case of B5, the “Binding Ratio” value in assay [1] turned out to be 1130 fold; in assay [2], 46 fold.

B6: H4H18438P2 (antibody, human IgG4, V domains shown)
VH: QVQLVESGGGVVQPGRSLRLSCAASGFSFNTYGMHWVRQAPGKGLEWVTIIWYDGSIKYYADSVKGRFTISRDNSKNTLYLQMNSLRAEDTAVYYCARGGYSGYLYFDYWGQGTLVTVSS
VL: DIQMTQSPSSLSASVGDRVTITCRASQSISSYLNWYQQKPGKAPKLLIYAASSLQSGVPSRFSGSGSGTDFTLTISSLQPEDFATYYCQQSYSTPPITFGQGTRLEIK
notes: human IgG4 Fc; Classed as potentiator
As for B6, the “Binding Ratio” value in assay [3] was 2410 fold; in assay [4], 1490 fold.

B7: H4H18449P2 (antibody, human IgG4, V domains shown)
VH: EVQLVESGGGLVQPGGSLRLSCVASGFTFNKYDMHWVRQTTGKGLEWVSGIDTDGDTYYPGSVKGRFTISRENAENSLYLQMNGLRVGDTAVYYCARWPWSGFYGAFDIWGQGTMVTVSS
VL: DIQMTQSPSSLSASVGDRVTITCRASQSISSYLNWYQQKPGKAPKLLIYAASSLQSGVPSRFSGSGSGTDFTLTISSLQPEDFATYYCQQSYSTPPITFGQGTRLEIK
notes: human IgG4 Fc; summary lists 74/66
Regarding B7, the “Binding Ratio” value in assay [3] is 3110 fold; in assay [4] it was 3370 fold.

B8: H4H17319P2 (antibody, human IgG4, V domains shown)
VH: QVQLVESGGSVVQPGRSLRLSCAASGFTFSTYAMYWVRQTPGKGLEWVAVLYSDGSNKYYIDSVKGRFTISRDTSTNTLYLQMSSLRADDSALYYCARLNWDYWYFDLWGRGTLVTVSS
VL: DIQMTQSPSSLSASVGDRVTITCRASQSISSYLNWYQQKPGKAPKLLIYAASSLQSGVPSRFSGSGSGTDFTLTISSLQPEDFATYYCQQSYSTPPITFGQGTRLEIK
notes: as for B4
Regarding B8, the “Binding Ratio” value in assay [1] was determined as 1130 fold; in assay [2], 47 fold. Also, in assay [5], the “200 nM mAb Bound (RU)” value was determined as 92 RU.

B9: H4H18417P2 (antibody, human IgG4, V domains shown)
VH: QVQLVESGGGVVQPGRSLRLSCAASGFTFSTYGMHWVRQAPGKGLEWVSVISYDESNKYYADSVKGRFTISRDNSKNALYLQMNSLRNEDTAVYYCARDRPFGLVTGWFDPWGQGTLVTVSS
VL: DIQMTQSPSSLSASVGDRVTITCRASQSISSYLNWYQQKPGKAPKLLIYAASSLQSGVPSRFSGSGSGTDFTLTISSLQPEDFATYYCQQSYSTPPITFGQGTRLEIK
notes: as for B6
Regarding B9, the “Binding Ratio” value in assay [3] came to 2600 fold; in assay [4], 1840 fold.
